For one molecule, Kd, koff and kon results are on record in patent CN110577600A (SHANGHAI INST MATERIA MEDICA CAS; NANJING LEADS BIOLABS …, dated 2019).

This test concerns the target T1, 重组人GPC3蛋白 (human, UniProt P51654 25-559, limits assumed).
T1 construct: also called 磷脂酰肌醇聚糖蛋白3
The test can be described thus: SPR, Biacore X100; antibody captured on goat anti-human Fc gamma CM5 chip, human GPC3 10nM-80nM as analyte, 1:1 Langmuir model.

The term Kd denotes the equilibrium constant for the complex coming apart. Usually koff stands for the first-order rate constant of dissociation. Broadly, the kon is a measure of how fast the partners come together.

T1 sequence (P51654 25-559 limits assumed): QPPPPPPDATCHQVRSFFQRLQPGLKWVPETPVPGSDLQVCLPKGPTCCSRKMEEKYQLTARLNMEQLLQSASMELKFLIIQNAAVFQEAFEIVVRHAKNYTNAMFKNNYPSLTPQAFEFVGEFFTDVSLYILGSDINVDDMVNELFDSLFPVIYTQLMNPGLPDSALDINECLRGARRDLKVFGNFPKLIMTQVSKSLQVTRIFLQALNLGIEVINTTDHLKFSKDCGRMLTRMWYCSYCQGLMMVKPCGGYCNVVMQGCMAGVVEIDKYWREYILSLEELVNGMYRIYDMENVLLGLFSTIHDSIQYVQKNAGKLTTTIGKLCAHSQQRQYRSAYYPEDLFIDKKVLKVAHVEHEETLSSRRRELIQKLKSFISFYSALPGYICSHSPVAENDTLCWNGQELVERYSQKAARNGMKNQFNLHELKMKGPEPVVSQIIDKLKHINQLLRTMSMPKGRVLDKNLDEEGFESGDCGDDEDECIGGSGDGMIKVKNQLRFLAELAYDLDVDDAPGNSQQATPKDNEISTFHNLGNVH

B1: 抗体GPC3-6 (antibody, human IgG1, lambda, V domains shown)
VH: QVHLVQSGAEVQKPGSSVKVSCKASGGTFSSYGINWVRQAPGQGLEWMGWISAYNGNTNYAQKLQGRVTMTTDTSTSTAYMELRSLRSDDTAVYYCARGSGLLPRIGGYWGKGTMVTVSS
VL: LSSELTQDPAVSVPLGQTVRITCRGDSLRTFYATWYQQKPGQAPVRVIYRKNNRPSGIPDRFSGSSSGNTASLTITGAQAEDEADYYCNSRDSSGDHLVFGTGTKLTVLG
notes: Selected from a phage display antibody library against GPC3; In SPR it was captured through goat anti-human Fc gamma; also called 人抗GPC3抗体GPC3-6; 抗GPC3抗体
In turn, B1 came in with a Kd of 3.77 nM, a koff of 0.000719 s⁻¹ and a kon of 190000 M⁻¹ s⁻¹.
